Among the data in US20240116985A1 (published 2024) are EC50 values, retold here.

To fix the notation:
T1: full-length beta-Catenin (Uniprot ID P35222) (Homo sapiens (Human), UniProt P35222 1-781)
T1 construct: The assay protocols call it full-length; also called B-Catenin; bCat
T1 sequence: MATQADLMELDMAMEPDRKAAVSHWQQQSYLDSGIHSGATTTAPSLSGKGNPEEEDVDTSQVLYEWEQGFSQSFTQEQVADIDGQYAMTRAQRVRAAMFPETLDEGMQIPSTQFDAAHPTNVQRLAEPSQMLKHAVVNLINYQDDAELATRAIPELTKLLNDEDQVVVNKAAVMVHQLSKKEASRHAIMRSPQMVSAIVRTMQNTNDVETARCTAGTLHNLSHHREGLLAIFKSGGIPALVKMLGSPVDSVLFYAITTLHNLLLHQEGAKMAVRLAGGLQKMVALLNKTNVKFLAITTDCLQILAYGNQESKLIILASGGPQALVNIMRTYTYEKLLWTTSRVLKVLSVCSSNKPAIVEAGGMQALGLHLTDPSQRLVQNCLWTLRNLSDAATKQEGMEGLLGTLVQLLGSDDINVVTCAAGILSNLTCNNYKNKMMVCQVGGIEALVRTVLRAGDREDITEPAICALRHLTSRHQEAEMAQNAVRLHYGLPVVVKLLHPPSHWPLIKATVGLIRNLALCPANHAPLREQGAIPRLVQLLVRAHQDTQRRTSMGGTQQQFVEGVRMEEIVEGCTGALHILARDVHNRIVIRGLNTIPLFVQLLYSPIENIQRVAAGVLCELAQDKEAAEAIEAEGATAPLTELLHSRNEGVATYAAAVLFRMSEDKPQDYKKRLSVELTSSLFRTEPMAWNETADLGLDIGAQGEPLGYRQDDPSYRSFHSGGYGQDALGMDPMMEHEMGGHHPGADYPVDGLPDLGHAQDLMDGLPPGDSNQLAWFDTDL

B1: I-272 (peptide)
peptide: Ac-[αAllylPro]DA[B5(17)]D[4Pal]AAFV[S8]FWQ-NH2
modifications: staple 1-4, 4-11
notes: Stapled (stitched) peptide; also called Ac-PL3-Asp-Ala-B5-Asp-4PyrA-Ala-Ala-Phe-Val-S8-Phe-Trp-Gln-NH2
B2: I-256 (peptide)
peptide: Ac-[αAllylPro]DA[B5(4)]D[6F1NapA]AAFV[S8]FWQ-NH2
modifications: staple 1-4, 4-11
notes: Stapled (stitched) peptide; also called Ac-PL3-Asp-Ala-B5-Asp-6F1NapA-Ala-Ala-Phe-Val-S8-Phe-Trp-Gln-NH2
B3: I-268 (peptide)
peptide: Ac-[αAllylPro]DA[B5(17)]DDAAFV[S8][hPhe]WQ-NH2
modifications: staple 1-4, 4-11
notes: Stapled (stitched) peptide; also called Ac-PL3-Asp-Ala-B5-Asp-Asp-Ala-Ala-Phe-Val-S8-hPhe-Trp-Gln-NH2
B4: I-269 (peptide)
peptide: Ac-[αAllylPro]DA[B5(17)]DDAAFV[S8][hTyr]WQ-NH2
modifications: staple 1-4, 4-11
notes: Stapled (stitched) peptide; also called Ac-PL3-Asp-Ala-B5-Asp-Asp-Ala-Ala-Phe-Val-S8-hTyr-Trp-Gln-NH2
B5: I-273 (peptide)
peptide: Ac-[αAllylPro]DA[B5(17)]D[hTyr]AAFV[S8]FWQ-NH2
modifications: staple 1-4, 4-11
notes: Stapled (stitched) peptide; also called Ac-PL3-Asp-Ala-B5-Asp-hTyr-Ala-Ala-Phe-Val-S8-Phe-Trp-Gln-NH2
B6: I-257 (peptide)
peptide: Ac-[αAllylPro]DA[B5(4)]D[Phe(3-F)]AAFV[S8]FWQ-NH2
modifications: staple 1-4, 4-11
notes: Stapled (stitched) peptide; also called Ac-PL3-Asp-Ala-B5-Asp-3FF-Ala-Ala-Phe-Val-S8-Phe-Trp-Gln-NH2
B7: I-282 (peptide)
peptide: XDAXEDAAFVXFWQ
modifications: not fully specified; N-terminal Ac; PL3 at 1; B5 at 4; S8 at 11; C-terminal NH2; staples PL3(1)-B5(4) and B5(4)-S8(11) by olefin metathesis
notes: Stapled (stitched) peptide; also called Ac-PL3-Asp-Ala-B5-Glu-Asp-Ala-Ala-Phe-Val-S8-Phe-Trp-Gln-NH2
B8: I-280 (peptide)
peptide: XEAXDDAAFVXFWQ
modifications: not fully specified; N-terminal Ac; PL3 at 1; B5 at 4; S8 at 11; C-terminal NH2; staples PL3(1)-B5(4) and B5(4)-S8(11) by olefin metathesis
notes: Stapled (stitched) peptide; also called Ac-PL3-Glu-Ala-B5-Asp-Asp-Ala-Ala-Phe-Val-S8-Phe-Trp-Gln-NH2
B9: I-284 (peptide)
peptide: Ac-[αAllylPro]DA[B5(4)]DDAAFV[S8]NWQ-NH2
modifications: staple 1-4, 4-11
notes: Stapled (stitched) peptide; also called Ac-PL3-Asp-Ala-B5-Asp-Asp-Ala-Ala-Phe-Val-S8-Asn-Trp-Gln-NH2
B10: I-259 (peptide)
peptide: Ac-[αAllylPro]DA[B5]D[Phe(3,4-F2)]AAFV[S8]FWQ-NH2
modifications: staple 1-4, 4-11
notes: Stapled (stitched) peptide; also called Ac-PL3-Asp-Ala-B5-Asp-34FF-Ala-Ala-Phe-Val-S8-Phe-Trp-Gln-NH2
B11: I-258 (peptide)
peptide: Ac-[αAllylPro]DA[B5]D[Phe(4-F)]AAFV[S8]FWQ-NH2
modifications: staple 1-4, 4-11
notes: Stapled (stitched) peptide; also called Ac-PL3-Asp-Ala-B5-Asp-4FF-Ala-Ala-Phe-Val-S8-Phe-Trp-Gln-NH2
B12: I-281 (peptide)
peptide: XDAXEDAAFVXFWQ
modifications: not fully specified; N-terminal Ac; PL3 at 1; B5 at 4; S8 at 11; C-terminal NH2; staples PL3(1)-B5(4) and B5(4)-S8(11) by olefin metathesis
notes: as for B7
B13: I-283 (peptide)
peptide: Ac-[αAllylPro]DA[B5(4)]DDAAFV[S8]DWQ-NH2
modifications: staple 1-4, 4-11
notes: Stapled (stitched) peptide; also called Ac-PL3-Asp-Ala-B5-Asp-Asp-Ala-Ala-Phe-Val-S8-Asp-Trp-Gln-NH2
B14: I-279 (peptide)
peptide: XEAXDDAAFVXFWQ
modifications: not fully specified; N-terminal Ac; PL3 at 1; B5 at 4; S8 at 11; C-terminal NH2; staples PL3(1)-B5(4) and B5(4)-S8(11) by olefin metathesis
notes: as for B8
B15: I-274 (peptide)
peptide: Ac-[αAllylPro]DA[B5(4)]DYAAFV[S8]FWQ-NH2
modifications: staple 1-4, 4-11
notes: Stapled (stitched) peptide; also called Ac-PL3-Asp-Ala-B5-Asp-Tyr-Ala-Ala-Phe-Val-S8-Phe-Trp-Gln-NH2

Starred links: 1 amine or outer side, 2 acyl side, 3 side chain; linkers in the order of their positions; H or OH if unused. Positions of bridges follow the written chain, without caps; N, C: chain ends. Non-standard residues stand in square brackets, D forms with d. Primed or numbered codes have the meaning given here. B5(17) = 2,2-bis(4-pentenyl)glycine = 2-amino-2-(pent-4-en-1-yl)hept-6-enoic acid, stitching residue, C=CCCCC(CCCC=C)(N[*:1])C(=O)[*:2]; B5(4) = 2,2-bis(4-pentenyl)glycine = 2-amino-2-(pent-4-en-1-yl)hept-6-enoic acid (stitching residue), C=CCCCC(CCCC=C)(N[*:1])C(=O)[*:2]; 6F1NapA = 2-amino-3-(6-fluoronaphthalen-1-yl)propanoic acid, O=C([C@H](Cc1cccc2cc(F)ccc12)N[*:1])[*:2]; B5 = 2-amino-2-(pent-4-en-1-yl)hept-6-enoic acid, C=CCCCC(CCCC=C)(N[*:1])C(=O)[*:2]; Phe(3,4-F2) = N[C@@H](Cc1ccc(F)c(F)c1)C(=O)O; Phe(3-F) = N[C@@H](Cc1cccc(F)c1)C(=O)O; Phe(4-F) = N[C@@H](Cc1ccc(F)cc1)C(=O)O; hTyr = N[C@@H](CCc1ccc(O)cc1)C(=O)O; αAllylPro = C=CC[C@@]1(C(=O)O)CCCN1; hPhe = N[C@@H](CCc1ccccc1)C(=O)O; 4Pal = N[C@@H](Cc1ccncc1)C(=O)O; S8 = C=CCCCCCC[C@](C)(N)C(=O)O

The target in the test is T1, full-length beta-Catenin (Uniprot ID …). Briefly: AlphaScreen competition; full-length beta-catenin with biotin-labelled TCF4 10-53 peptide as competitor. The procedure: Equal volume of the titrated peptide was added to the plate and incubated for 15 minutes at 20° C. Then 4 uL of donor and 4 uL acceptor beads at 10 ug/mL were added to the plate, for a 16 uL reaction pool and protected from light for 60 minutes at 20° C. prior to read. Reads were performed on a CLARIOstar plate reader (BMG Labtech) in duplicate, and data were fitted to a 1:1 binding model with hill slope using an in-house script. All provided concentrations are final concentrations.
A general note: In Alpha technology, singlet oxygen from a donor bead excites a nearby acceptor bead.
The molecule B1 gave an EC50 of 1.01 µM. The figure for B2 is 9.21 µM.

In turn, B3 showed an EC50 of 4 µM. Regarding B4, the EC50 amounted to 5.31 µM. Consider B5, for which it took 1.89 µM to reach a half-maximal effect (EC50). Turning to B6, the EC50 turned out to be 3.81 µM. In turn, B7 came in with an EC50 of 3.53 µM. B8: the EC50 came to 3.05 µM. The result for B9 reads 4.35 µM; that for B10, 4.18 µM; that for B11, 2.93 µM. As for B12, the EC50 was 6.26 µM.

For the molecule B13, the EC50 was found to be 9.54 µM. B14 came in with an EC50 of 4.96 µM. Regarding B15, the EC50 came out at 2.35 µM.

Usually EC50 stands for the midpoint of the concentration-response curve.
